Source: publication PMC4789106 (Biochemistry, 2015)
Like-named read-outs stand apart in the source and are kept apart here.

B1: A546T FAS1-4 (fourth fasciclin 1 domain of TGFBIp with the A546T substitution) (domain or fragment, human)
chain: AGMGTVMDVLKGDNRFSMLVAAIQSAGLTETLNREGVYTVFAPTNETFRALPPRERSRLLGDAKELANILKYHIGDEILVSGGIGALVRLKSLQGDKLEVSLKNNVVSVNKEPVAEPDIMATNGVVHVITNVLQPPANRPQERGDELADSALEIFKQA
B2: Y571-R588 peptide of TGFBIp (peptide, UniProt Q15582 571-588, looked up)
peptide: YHIGDEILVSGGIGALVR
B3: Transforming growth factor beta-induced protein (TGFBIp) from human corneal stroma extract (natural protein, human (endogenous in corneal stroma), UniProt Q15582 24-683, looked up)
chain: GPAKSPYQLVLQHSRLRGRQHGPNVCAVQKVIGTNRKYFTNCKQWYQRKICGKSTVISYECCPGYEKVPGEKGCPAALPLSNLYETLGVVGSTTTQLYTDRTEKLRPEMEGPGSFTIFAPSNEAWASLPAEVLDSLVSNVNIELLNALRYHMVGRRVLTDELKHGMTLTSMYQNSNIQIHHYPNGIVTVNCARLLKADHHATNGVVHLIDKVISTITNNIQQIIEIEDTFETLRAAVAASGLNTMLEGNGQYTLLAPTNEAFEKIPSETLNRILGDPEALRDLLNNHILKSAMCAEAIVAGLSVETLEGTTLEVGCSGDMLTINGKAIISNKDILATNGVIHYIDELLIPDSAKTLFELAAESDVSTAIDLFRQAGLGNHLSGSERLTLLAPLNSVFKDGTPPIDAHTRNLLRNHIIKDQLASKYLYHGQTLETLGGKKLRVFVYRNSLCIENSCIAAHDKRGRYGTLFTMDRVLTPPMGTVMDVLKGDNRFSMLVAAIQSAGLTETLNREGVYTVFAPTNEAFRALPPRERSRLLGDAKELANILKYHIGDEILVSGGIGALVRLKSLQGDKLEVSLKNNVVSVNKEPVAEPDIMATNGVVHVITNVLQPPANRPQERGDELADSALEIFKQASAFSRASQRSVRLAPVYQKLLERMKH
B4: Recombinant WT TGFBIp (natural protein, human, UniProt Q15582 24-683, looked up)
chain: GPAKSPYQLVLQHSRLRGRQHGPNVCAVQKVIGTNRKYFTNCKQWYQRKICGKSTVISYECCPGYEKVPGEKGCPAALPLSNLYETLGVVGSTTTQLYTDRTEKLRPEMEGPGSFTIFAPSNEAWASLPAEVLDSLVSNVNIELLNALRYHMVGRRVLTDELKHGMTLTSMYQNSNIQIHHYPNGIVTVNCARLLKADHHATNGVVHLIDKVISTITNNIQQIIEIEDTFETLRAAVAASGLNTMLEGNGQYTLLAPTNEAFEKIPSETLNRILGDPEALRDLLNNHILKSAMCAEAIVAGLSVETLEGTTLEVGCSGDMLTINGKAIISNKDILATNGVIHYIDELLIPDSAKTLFELAAESDVSTAIDLFRQAGLGNHLSGSERLTLLAPLNSVFKDGTPPIDAHTRNLLRNHIIKDQLASKYLYHGQTLETLGGKKLRVFVYRNSLCIENSCIAAHDKRGRYGTLFTMDRVLTPPMGTVMDVLKGDNRFSMLVAAIQSAGLTETLNREGVYTVFAPTNEAFRALPPRERSRLLGDAKELANILKYHIGDEILVSGGIGALVRLKSLQGDKLEVSLKNNVVSVNKEPVAEPDIMATNGVVHVITNVLQPPANRPQERGDELADSALEIFKQASAFSRASQRSVRLAPVYQKLLERMKH

Legend:
Recombinant WT TGFBIp = molecular target: B4; assay: pull-down
[1] = molecular target: the molecule itself; assay: centrifugation and limited trypsin proteolysis of fibrils
[2] = molecular target: the molecule itself; assay: ThT fluorescence fibrillation assay + TEM
[3] = molecular target: B2; assay: pull-down
[4] = molecular target: B2; assay: pull-down

Binder | binding result (Recombinant WT TGFBIp) | binding result [2] | also measured
B1 | binds | – | binding result [1]: binds
FSMLVAAIQSAGLTETLNR (peptide, UniProt Q15582 515-533, looked up) [F515-R533 peptide of TGFBIp] | binds | binds | –
B2 | – | binds | –
B3 | – | – | amount of TGFBIp bound, fold against F515-R533 fibrils [3]: ~3 times
B4 | – | – | amount of TGFBIp bound, fold against F515-R533 fibrils [4]: ~1.6 times
